Biological target: the molecule itself
Test: cryo-EM structure; single-particle cryo-EM of the channel reconstituted in MSP1E3D1/SoyPC nanodiscs; 50 mM Tris pH 8.0, 150 mM NaCl; C5 symmetry imposed

B1: Malus domestica VCCN1, N-terminally truncated "wild-type" construct (natural protein)
chain: MPNPSPPSSSSPVQTLISILRIIPDWSDRTQERGMRQHRTLYDHEKWMHHRSSYRHLRHLLSSLSSRVILSLIPPVIAFTLVAVVIASYNTAVALDLLPGIFPLLRSSSLPYQLTAPALALLLVFRTEASYSRFEEGRKAWTEVIAGANDFARQIISSVETSGDAQLKKALLQYIVAFPVALKCHVIYGSDIARDLQNLLEVDDLLVVLNSKHRPGCIIQFISRSLQLLKLEESRRIMLQSKISCFHEGIGICEQLIGTPIPLSYTRLTSRFLVLWHLTLPIILWDDCHWIVVPATFISAASLFCIEQVGVLIEEPFPMLALDDLCNSVRNNVQEALASEKLIRARLAAKGRIQSEQQFQNGQPRPENLYFQ
stoichiometry N: 5
